The source of these data is the DeepSol protein solubility set.

This series is described as follows: soluble on expression in E. coli; label from the status in PepcDB or PDB records.
Take “MAELPAKRRFTRIDRLPPYVFNITSELKMAARRRGEDIIDFSMGNPDGPTPPHIVEKMCSVAQREDTHGYSTSRGIPCLRRAISRWYADRYQVDIDPENEAIVTIGSKEGLAHLMLATLDHGDTVLVPNPSYPIHIYGAVIAGAQVRSVPLTEGIDFFGELERAIRETIPKPKMMILGFPSNPTAQCVELDFFERVVALAKQYDVLVVHDLAYADIVYDGWKAPSIMQVPGAKDIAVEFFTLSKSYNMAGWRIGFMVGNPELVSALARIKSYHDYGTFTPLQVAAIAALEGDQQCVRDIAEQYRQRRNALVRGLHEAGWMVDNPKASMYVWAKIPEPYAHLGSLEFAKRLLAEAKVCVSPGIGFGDYGDTHVRFALIENQDRIRQAVRGIKSMFRADGLLKPGKSSPNEMA”: the “soluble on expression in E. coli” value is “not soluble”.

Turning to “MSDSASNTENSIQIEIFPSRILSPETAQKLLVELSQVDGILRVMIQGNRLPEKVGYGPGTGEKVEHPLRKPIQIGGQVIELRVSVGRIRLEVLNAEVKENVRAVCEKMLPFSFEFREGHFLRRKPTVTDYAKLGPEADPRLLGMVDPKAKINQLVFIEKQEKEDDEDKDELEHHHHHH”, the “soluble on expression in E. coli” value was “soluble”.

For the sequence “SVGGGGSGGGLLENANPLIYERSGERPVTAGEEDEEVPDSIDAREIFDLIRSINDPEHPLTLEELNVVEQVRIQVSDPESTVAVAFTPTIPHCSMATLIGLSIKVKLLRSLPQRFKMDVHITPGTHASEHAVNKQLADKERVAAALENTHLLEVVNQCLSARS”, the “soluble on expression in E. coli” value is reported as “soluble”.

“MPVQPPSKDTEEMEAEGDSAAEMNGEEEESEEERSGSQTESEEESSEMDDEDYERRRSECVSEMLDLEKQFSELKEKLFRERLSQLRLRLEEVGAERAPEYTEPLGGLQRSLKIRIQVAGIYKGFCLDVIRNKYECELQGAKQHLESEKLLLYDTLQGELQERIQRLEEDRQSLDLSSEWWDDKLHARGSSRSWDSLPPSKRKKAPLVSGPYIVYMLQEIDILEDWTAIKKARAAVSPQKRKSDGP”: the “soluble on expression in E. coli” value is listed as “soluble”.

As to “MGSDKIHHHHHHMTHPQDQHPPQDARTLPTRDHDASEALLERVRQAAATGTALRLVGGGSKGFYGRPVVGETLSLAEHTGIVNYDPVELVVTVRAGTRLADLQAVLAQEGQQLAFEPPHFGENATVGGTVACGLSGPRRPWAGSVRDFVLGTRMITHDGKRLHFGGEVMKNVAGYDLSRLMVGAQGTLGIIDEVSFKVLPRPAASATLRLEMGLGDAMARLAEWGRKPMPITGAAHDGETLHLRLEGGASSVANTQAQLGGELDDTAFWTQLRELELAFFSRRHDDRPLWRLSLPHRAPPLALDGDTLVDWAGAQRWLRSELPAATIRQHAAQAGGHATLVDRDRAHGVDAPFTPLSVVMDKYHRQLKAKLDPKGIFNPGRLYEGL”, the “soluble on expression in E. coli” value is “not soluble”.

As for “MNDFSLELPVRTNKPRETGQSILIDNGYPLQFFKDAIAGASDYIDFVKFGWGTSLLTKDLEEKISTLKEHDITFFFGGTLFEKYVSQKKVNEFHRYCTYFGCEYIEISNGTLPMTNKEKAAYIADFSDEFLVLSEVGSKDAELASRQSSEEWLEYIVEDMEAGAEKVITEARESGTGGICSSSGDVRFQIVDDIISSDIDINRLIFEAPNKTLQQGFIQKIGPNVNLANIPFHDAIALETLRLGLRSDTFFL”, the “soluble on expression in E. coli” value was “soluble”.

In the case of “MAHHHHHHSLSSSLANRNIYTVSRLNSEVRLLLENEMGIVWLVGEISNFSAPVSGHWYLTLKDSQAQVKCAMFKGNNRLVNFKPQNGQQVLVKARLSLYEPRGDYQIILESMQPEGDGRLQQQFEQLKMQLAAEGLFAQTRKKPLPENPRCVGIITSRTGAALHDILHVLKRRDPNLPVVIYPTLVQGEEAAIQIAQAIGRANTRAECDVLIVGRGGGSLEDLWCFNHEIVARTIAASEIPIISAVGHEIDVTIADFVADVRAPTPSAAAELVSRDHRHKQQALHQWQAKLASTMRHYLAQQETQFARLQHKLDKQHPQARLERQQQQLDELSLRLEQKMQQRLATQQQRWDRLSHKIELHSPIHLIRQQRFNLIQQEQRINQSIQRYLIQSRHQLALLSEKLDAVSPLATLARGYSVTRTTQGELVRQSAQVKPGDTLVTQLMDGEILSTVNSREG”, the “soluble on expression in E. coli” value is on record as “not soluble”.

For the sequence “MALRRVKNPEMWNDDLYNLMFRFTKPNGTFATFTAASAVRKGLESAGFNVTKRKGFGKKRECLSGLKIQSKSTALSTPWYLAQPAKMEKQDVAIIGGGIASLCAAISLIKRGAKVTIYCEDDALALNASGNKQGAFYPQLSDDNALTVDFYLHAFSYGRQLLDWAIEQNIVFEHEFCGVALCAYNEKSAVKLTKISQLGLPNEIFQMLSAEQLSEKVGLPLNCEGGWIEQGAWLAPRQFVQNAFSFLEKQGVVIKTAQKITALSQLEKGWELKNMQGQKYCHEVVILANGHKITDFVQTEKLPLYPIRGQVSQIPTSENLLKLKSVLCYDGYLTPANQLKTSHCIGASMFVIMLIAILANKNNKKINKNSSKISPNLGRKMWIHQIISLVLEHHHHHH”, the “soluble on expression in E. coli” value is “not soluble”.

For the sequence “MGSDKIHHHHHHVTPLPIVDPGPPVLYDVEHVTSYRYALPVTVSHQCAHLKPRSFATQQVLSTQLGATPLPEIRSERIDYFGNTVTSFSLSEPHESLTVVAQSQVRILPPTLPAAADTPRWEEVAERLRLGFGADTLDACQMLYPSGHVKTLPEVRAYALPSFPPDRPILEAAIDLTGRIHADFTYDPTATTVATPLAEVLAKRRGVCQDFAHLQIACLRSMGLAARYVSGYVLTCSTESGERLEGGDASHAWVSLYVPCAAAPNGGWIDLDPTNDKLITREHVTVAWGRDFEDVSPIKGVMLGGGAQTVSVAVTLRPRTNGPRARTESPA”, the “soluble on expression in E. coli” value is “not soluble”.

On to “MPVAPNPLLQANAIAKTSRSATVQADKPLQALGDKGDAFGQVMARQGRDKVTGQDDKVAQAKPKDKPDAAAGGKKDPAGKAAVADDGNKLPEEDSAQADTGVRDASLVAGQVTDAQPGAQLIQAQAEAVAPVLQAATAQTQVSAALPEEPSAEEAFDPDADPLANLPTLRLALEHSAQAKGGTSAHALDAAQAQGEEGQAAVNTLANLVEDTDGESAESGGKAFGALLEDGLKDTKSASSDTRIDDFANRLASLTQAATAKTANAVPATANPLHQPLPMNQNAWAEGLVNRVMYLSSQNLKSADIQLEPAELGRLDIRVNVAADQATQVTFISGHAGVRDALDSQVHRLRELFAQQGLAQPDVNVADQSRGQQQQQGQAQGSNLSGVAARRAEQGGAEAVDSARPLEQQVVVGDSAVDYYA”, for which the “soluble on expression in E. coli” value was “not soluble”.

Consider “MGSDKIHHHHHHMKIAVLPGDGIGPEVVREALKVLEVVEKKTGKTFEKVFGHIGGDAIDRFGEPLPEETKKICLEADAIFLGSVGGPKWDDLPPEKRPEIGGLLALRKMLNLYANIRPIKVYRSLVHVSPLKEKVIGSGVDLVTVRELSYGVYYGQPRGLDEEKGFDTMIYDRKTVERIARTAFEIAKNRRKKVTSVDKANVLYSSMLWRKVVNEVAREYPDVELTHIYVDNAAMQLILKPSQFDVILTTNMFGDILSDESAALPGSLGLLPSASFGDKNLYEPAGGSAPDIAGKNIANPIAQILSLAMMLEHSFGMVEEARKIERAVELVIEEGYRTRDIAEDPEKAVSTSQMGDLICKKLEEIW”, for which the “soluble on expression in E. coli” value is recorded as “soluble”.

For the sequence “KAPFLILMHRNPDPDAMASAMALKTIFDKWGVSSEIAYGGKIGYDENKAMVNLLSIKLNPIDEINLSRYCSIAVVDSSSSKTLPIDVEDSKLSVIIDHHNDSDIVAKYMDILPEIGATATILTKYLLELEIAPNRDLATALYYAITSDTNYFKRKTSKKDFEAASYLQGLMDPKVLEMIENPDM”, the “soluble on expression in E. coli” value is given as “not soluble”.

For “MGHHHHHHSHMPESYWEKVSGKNIPSSLDLYPIIHNYLQEDDEILDIGCGSGKISLELASLGYSVTGIDINSEAIRLAETAARSPGLNQKTGGKAEFKVENASSLSFHDSSFDFAVMQAFLTSVPDPKERSRIIKEVFRVLKPGAYLYLVEFGQNWHLKLYRKRYLHDFPITKEEGSFLARDPETGETEFIAHHFTEKELVFLLTDCRFEIDYFRVKELETRTGNKILGFVIIAQKL”, the “soluble on expression in E. coli” value is “not soluble”.

As to “MGSDKIHHHHHHMKNVIKFYEKGSIEILYGKSSHSFPLHSHECFCVGAITKGSALFTINNTKCLLEESMVFIIPPNTGISITANSQYDYITICFKNELKKQVEHILFNKFFLKIKSNDEIFNLCDIFKENNNEKQLLNSILILINSTIATNSLVMETSTNNTVLLICEYIKQTAAKNFSLDTLAESFYLSKYHLIRMFKKEMGVTPYQYYIQAKMGIIRRQIFNGKSETDLAINLNLSDSSHLCKIFKRQMGISIQAYKKNLIRK”, the “soluble on expression in E. coli” value is recorded as “not soluble”.

For “MKVYYPGREWPEEYKRVLEKMKEIIDPVTGDNILDSGVVAGLEVKDRTLKVWLRFESQAEYNILGGAAMAYSKIVGDIMEKFALVMFDNVYVYDLRNNIVGVFEKKK”, the “soluble on expression in E. coli” value is “soluble”.

Take “TLDYNIQQQAYNLLGDNKGSVVVLNPKTGEILAMVSKPSYDPNDDALKASWAALNSNPDRPLLNRAVSGLYPPGSTFKTVTAISALENISGIQNETFNDPGQLVFNSTESLRDFGGESFGDIGFKHAYVVSSNVVFGKIGLQLGNNNLRQTAESFYFNKNIPCDGIVIDKSKFPTLKSYEKGNMAQSAIGQASVLATPIQMALVASTVANDGVMMKPHVVNEILSPNGDKIKSIEPESIGNIVSKENAATMKDFMRNVVEDGTGVNAAVEGIQVAGKTGTADHKVNGKDATPHSWFIGFAPYDNPQVAIAVIVEDGGQGGKAAAGIASKVIQTALQK”: the “soluble on expression in E. coli” value was “not soluble”.

On to “MFLINGHKQESLAVSDRATQFGDGCFTTARVIDGKVSLLSAHIQRLQDACQRLMISCDFWPQLEQEMKTLAAEQQNGVLKVVISRGSGGRGYSTLNSGPATRILSVTAYPAHYDRLRNEGITLALSPVRLGRNPHLAGIKHLNRLEQVLIRSHLEQTNADEALVLDSEGWVTECCAANLFWRKGNVVYTPRLDQAGVNGIMRQFCIRLLAQSSYQLVEVQASLEESLQADEMVICNALMPVMPVCACGDVSFSSATLYEYLAPLCERPN”, for which the “soluble on expression in E. coli” value is “soluble”.

Turning to “MGSDKIHHHHHHMFKIVYPNAKDFFSFINSITNVTDSIILNFTEDGIFSRHLTEDKVLMAIMRIPKDVLSEYSIDSPTSVKLDVSSVKKILSKASSKKATIELTETDSGLKIIIRDEKSGAKSTIYIKAEKGQVEQLTEPKVNLAVNFTTDESVLNVIAADVTLVGEEMRISTEEDKIKIEAGEEGKRYVAFLMKDKPLKELSIDTSASSSYSAEMFKDAVKGLRGFSAPTMVSFGENLPMKIDVEAVSGGHMIFWIAPRL”, the “soluble on expression in E. coli” value is “not soluble”.

Turning to “MGSDKIHHHHHHMRICPVPRSAPAGCARIRCLRRCAVFGRSCPKLGLWSSGARTLSHPPCADVNWPNTLCAQHVACALRSHCLTLRAPHALLGRAVRKAGDLMTTAGFQSIDAVQSELSEAGYVCGRALATVVFLSTRLGRPLFLEGEAGVGKTEIAKALAAVTGRPLIRLQCYEGLDAASAVYEWNFAAQMMAIRMAESAGQSDREALQAELFSQDYLIARPLLQAMQPDARGTPILLIDELDRTDAPFEAFLLEALSDFQVTIPELGTIRAPEPPMVILTSNRTREVHDALKRRCLYHWVDYPDFDRELEILTAQVPTASEALSRQVVAFVQSLRTEDLFKKPGVAETIDWANCLLALDVVNLSPETIADTLGALLKYQDDIARLQGSEAKRLLDEARSLLQEH”, the “soluble on expression in E. coli” value is “not soluble”.

Turning to “SLELKITDFKVFVAQANFEWAFVRIYSKDLYGTGEAGPAPGLKGMESEFIQLLIGEDAFKVNRIAEKLRYATLYSGTTVYHLISAINIALYDLIGKYLNVPIYKLLGGDKTEIPVYVDAHGGKGLEAINALHLPVNLPWIKEAEVETNRLITTNNPVHGRLSMEKWNEDYSPEAYAKRALKMKNEGYKAMKFDLDVPTPYIDLRRVRNGDLSLKDIDYMVDIVKAVRESVGDEVEIMFDLHWRYNLNTAIRICKALEPYRLRWLEDPMPAIMAVSNYDELKLLTSQCSVPIETGENLYTVYQFKDLLNTGVRVWAPDIVKAGGITEGRRIAELAAMYDIEYSPHNIASPIGTMAHAHVGSIANTFGFVEFHGHDVPFWNEIVKPKRKIIEDGVIKLTDDPGLGIDLDDEVMRKYWPTYEL”, the “soluble on expression in E. coli” value is listed as “soluble”.
